{"source": "patent US20110300229A1", "about": "“TREATING OR PREVENTING ROTAVIRUS INFECTION” (FONTERRA CO-OPERATIVE GROUP LIMITED, priority 2007, published 2011)", "key": {"human Wa rotavirus": {"test_system": "human Wa rotavirus", "settings": "cited from earlier work"}, "[1]": {"test_system": "human rotavirus strain Wa", "assay": "Rotavirus infection assay in HT29 cells (crystal violet, % uninfected cells)", "assay_type": "cell-based", "method": "The HT29 cell line was used to propagate the human rotavirus strain Wa (neuraminidase resistant) in the presence of 1 μg/ml trypsin in Dulbecco's minimal essential medium (DMEM) supplemented with 10% foetal calf serum and penicillin/streptomycin (100 μg/ml/100 units/ml). Rotavirus was harvested by freeze thawing twice, spun at 750 g to remove cell debris and stored at −80° C. The rotavirus was assayed and found to contain […] plaque forming units (pfu)/ml.\nThe infection assay used was based on a number of published assays (Scott et al 1979; Smith et al 1979; Guarino et al 1996; Superb et al 2001). Confluent HT29 cells grown in DMEM (seeded at 3×10^5/ml in 96 well plates) were washed twice in sterile PBS. Doubling dilutions of each of the products to be screened (initial concentration 5 mg/ml) were made in the plate in 50 μl volumes of DMEM. Virus was added (10^4 pfu/well) to all wells except the cells only control and plates were then incubated for two hours in 5% CO2 at 37° C. Other controls included virus plus cells, lipids only, pure GM3 and pure GD3. Following the two-hour incubation trypsin was added to all the wells containing virus at a concentration of 2 μg/ml—this step cleaves VP4 to polypeptides VP8 and VP5 and is needed for the virion to penetrate into the cells' interior. Plates were incubated at 37° C. in 5% CO2 for seven days and were checked daily for cytopathic effect in the virus only control wells. Media was removed and plates washed in sterile PBS, air-dried and fixed with methanol for one minute. Plates were air dried and then stained with 100 μl/well of 1% crystal violet (351884W, BDH, England) for five minutes. Plates were washed four times with sterile water to remove excess stain. 100 μl of acetic acid per well was added to solubilise the stain and absorbance was read at a wavelength of 595 nm in a Biorad ELISA plate reader. Each sample was assayed on a minimum of three separate occasions and the percentage of uninfected cells calculated.\nStatistical analysis was performed using an unpaired Student t test (InStat for MacIntosh) to compare the effect of the lipid products derived from bovine milk with the virus only control at the lowest dilution of the product."}}, "note": "Marks after values point to notes of the source that are not given here.", "data": [{"molecule": "bovine lactoferrin: bovine milk protein, result cited from Kvistgaard et al, 2004 (protein, UniProt P24627 20-708, looked up) Lactotransferrin: APRKNVRWCTISQPEWFKCRRWQWRMKKLGAPSITCVRRAFALECIRAIAEKKADAVTLDGGMVFEAGRDPYKLRPVAAEIYGTKESPQTHYYAVAVVKKGSNFQLDQLQGRKSCHTGLGRSAGWIIPMGILRPYLSWTESLEPLQGAVAKFFSASCVPCIDRQAYPNLCQLCKGEGENQCACSSREPYFGYSGAFKCLQDGAGDVAFVKETTVFENLPEKADRDQYELLCLNNSRAPVDAFKECHLAQVPSHAVVARSVDGKEDLIWKLLSKAQEKFGKNKSRSFQLFGSPPGQRDLLFKDSALGFLRIPSKVDSALYLGSRYLTTLKNLRETAEEVKARYTRVVWCAVGPEEQKKCQQWSQQSGQNVTCATASTTDDCIVLVLKGEADALNLDGGYIYTAGKCGLVPVLAENRKSSKHSSLDCVLRPTEGYLAVAVVKKANEGLTWNSLKDKKSCHTAVDRTAGWNIPMGLIVNQTGSCAFDEFFSQSCAPGADPKSRLCALCAGDDQGLDKCVPNSKEKYYGYTGAFRCLAEDVGDVAFVKNDTVWENTNGESTADWAKNLNREDFRLLCLDGTRKPVTEAQSCHLAVAPNHAVVSRSDRAAHVKQVLLHQQALFGKNGKNCPDKFCLFKSETKNLLFNDNTECLAKLGGRPTYEEYLGTEYVTAIANLKKCSTSPLLEACAFLTR", "values": [{"measurement": "prevention of human Wa rotavirus infection in vitro", "setting": "human Wa rotavirus", "value": "could not prevent"}]}, {"molecule": "Lactoferrin: lactoferrin provided by Fonterra Co-operative Group Limited; comparative material (protein, UniProt P24627 20-708, looked up) Lactotransferrin: APRKNVRWCTISQPEWFKCRRWQWRMKKLGAPSITCVRRAFALECIRAIAEKKADAVTLDGGMVFEAGRDPYKLRPVAAEIYGTKESPQTHYYAVAVVKKGSNFQLDQLQGRKSCHTGLGRSAGWIIPMGILRPYLSWTESLEPLQGAVAKFFSASCVPCIDRQAYPNLCQLCKGEGENQCACSSREPYFGYSGAFKCLQDGAGDVAFVKETTVFENLPEKADRDQYELLCLNNSRAPVDAFKECHLAQVPSHAVVARSVDGKEDLIWKLLSKAQEKFGKNKSRSFQLFGSPPGQRDLLFKDSALGFLRIPSKVDSALYLGSRYLTTLKNLRETAEEVKARYTRVVWCAVGPEEQKKCQQWSQQSGQNVTCATASTTDDCIVLVLKGEADALNLDGGYIYTAGKCGLVPVLAENRKSSKHSSLDCVLRPTEGYLAVAVVKKANEGLTWNSLKDKKSCHTAVDRTAGWNIPMGLIVNQTGSCAFDEFFSQSCAPGADPKSRLCALCAGDDQGLDKCVPNSKEKYYGYTGAFRCLAEDVGDVAFVKNDTVWENTNGESTADWAKNLNREDFRLLCLDGTRKPVTEAQSCHLAVAPNHAVVSRSDRAAHVKQVLLHQQALFGKNGKNCPDKFCLFKSETKNLLFNDNTECLAKLGGRPTYEEYLGTEYVTAIANLKKCSTSPLLEACAFLTR", "values": [{"measurement": "Percentage of HT29 cells uninfected by rotavirus", "setting": "[1]; 0.3125 mg/ml", "value": "60 +/− 8 ** %"}, {"measurement": "Percentage of HT29 cells uninfected by rotavirus", "setting": "[1]; 0.625 mg/ml", "value": "65 +/− 8 *** %"}, {"measurement": "Percentage of HT29 cells uninfected by rotavirus", "setting": "[1]; 1.25 mg/ml", "value": "73 +/− 12 *** %"}, {"measurement": "Percentage of HT29 cells uninfected by rotavirus", "setting": "[1]; 2.5 mg/ml", "value": "87 +/− 4 *** %"}, {"measurement": "Percentage of HT29 cells uninfected by rotavirus", "setting": "[1]; 5 mg/ml", "value": "67 +/− 4 *** %"}]}, {"molecule": "bovine MUC1 mucin: bovine milk mucin, cited from Kvistgaard et al, 2004 (protein, UniProt Q8WML4 23-580, looked up) Mucin-1: NVPTLTTSDSINPRRTTPVSTTQSSPTSSPTKETSWSTTTTLLTASSPAPSPAASPGHDGASTPTSSPAPSPAASPGHDGASTPTSSPAPSPAASPGHDGASTPTSSPAPSPAASPGHDGASTPTSSPAPSPAASPGHNGTSSPTGSPAPSPAASPGHDGASTPTSSPAPSPAASPGHNGTSSPTGSPAPSPAASPGHDGASTPTSSPAPSPAASPGHNGTSSPTGSPAPSPTASPGHDSAPSLTSSPAPSPTASPGQHGASSPTSSDTSSMTTRSMSSSMVTSAHKGTSSRATMTPVSKGTPSSVPSSETAPTAASHITRTAASSPSIALSTSSNPKTSQQLSVRVSLYFLSFRITNLQFNSSLENPQTSYYQELQRSIWGLILQIYKQRDFLGLSEIKFRPGSVVVELTLAFREGTTAEWVKAQFSQLEAHAASYNLTISGVSVYSAPFPSSAQAGSGVPGWGIALLVLVCVLVALAIIYLIALVVCQCGRKKCEQLDVFPTLDAYHPMSEYSTYHTHGRYVPPGSTKRSPYEEVSAGNGGSNLSYTNLAATSANL", "values": [{"measurement": "prevention of human Wa rotavirus infection in vitro", "setting": "human Wa rotavirus", "value": "could not prevent"}]}, {"molecule": "bovine lactadherin: bovine milk fat globule membrane glycoprotein, cited from Kvistgaard et al, 2004 (protein, UniProt Q95114 19-427, looked up) Lactadherin: ASGDFCDSSLCLHGGTCLLNEDRTPPFYCLCPEGFTGLLCNETEHGPCFPNPCHNDAECQVTDDSHRGDVFIQYICKCPLGYVGIHCETTCTSPLGMQTGAIADSQISASSMHLGFMGLQRWAPELARLHQTGIVNAWTSGNYDKNPWIQVNLMRKMWVTGVVTQGASRAGSAEYLKTFKVAYSTDGRQFQFIQVAGRSGDKIFIGNVNNSGLKINLFDTPLETQYVRLVPIICHRGCTLRFELLGCELNGCTEPLGLKDNTIPNKQITASSYYKTWGLSAFSWFPYYARLDNQGKFNAWTAQTNSASEWLQIDLGSQKRVTGIITQGARDFGHIQYVAAYRVAYGDDGVTWTEYKDPGASESKIFPGNMDNNSHKKNIFETPFQARFVRIQPVAWHNRITLRVELLGC", "values": [{"measurement": "prevention of human Wa rotavirus infection in vitro", "setting": "human Wa rotavirus", "value": "could not prevent"}]}]}
